# Reference: publication PMC4434323
# Target: T1, egrh-3 (Y94H6A.11) (Caenorhabditis elegans) (UniProt U4PLQ8)
# T1 sequence: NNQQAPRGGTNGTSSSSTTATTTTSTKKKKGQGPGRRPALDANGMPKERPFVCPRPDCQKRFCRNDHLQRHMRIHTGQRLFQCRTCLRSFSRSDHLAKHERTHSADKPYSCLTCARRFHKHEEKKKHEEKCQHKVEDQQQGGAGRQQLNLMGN
row,Sequence,binding signal (PBM E-score (-0.5 to 0.5))
1,CTCCCCCC (double strand) [8-mer CTCCCCCC],0.497
2,GCCCCCCC (double strand) [8-mer GCCCCCCC],0.496
3,GGGGGAGA (double strand) [8-mer GGGGGAGA],0.493
4,GGGGGGAA (double strand) [8-mer GGGGGGAA],0.493
5,GGGGGGGA (double strand) [8-mer GGGGGGGA],0.499

# Target: ZC328.2 (ZC328.2) (Caenorhabditis elegans) (UniProt O02050)
# Sequence (O02050 entry or part of it): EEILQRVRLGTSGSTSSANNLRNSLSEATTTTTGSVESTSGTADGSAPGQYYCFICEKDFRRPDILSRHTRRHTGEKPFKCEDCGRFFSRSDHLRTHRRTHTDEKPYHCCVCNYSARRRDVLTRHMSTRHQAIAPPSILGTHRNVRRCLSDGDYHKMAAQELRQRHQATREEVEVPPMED
row,Sequence,binding signal (PBM E-score (-0.5 to 0.5))
1,CCCCACGC (double strand) [8-mer CCCCACGC],0.485
2,CCCCCACG (double strand) [8-mer CCCCCACG],0.48
3,CCCCCCGC (double strand) [8-mer CCCCCCGC],0.486
4,CCGCCTAC (double strand) [8-mer CCGCCTAC],0.488
5,CGCCCACC (double strand) [8-mer CGCCCACC],0.484
6,CGCCCCCC (double strand) [8-mer CGCCCCCC],0.487

# Target: ztf-11 (F52F12.6) (Caenorhabditis elegans) (UniProt O02274)
# Sequence (O02274 212-388): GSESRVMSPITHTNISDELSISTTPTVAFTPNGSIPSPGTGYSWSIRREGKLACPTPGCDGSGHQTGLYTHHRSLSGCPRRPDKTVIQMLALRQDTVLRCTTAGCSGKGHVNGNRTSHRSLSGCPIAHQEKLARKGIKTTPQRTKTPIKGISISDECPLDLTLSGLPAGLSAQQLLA
row,Sequence,binding signal (PBM E-score (-0.5 to 0.5))
1,AAAAGTTT (double strand) [8-mer AAAAGTTT],0.492
2,AAACTTCG (double strand) [8-mer AAACTTCG],0.487
3,AAACTTGC (double strand) [8-mer AAACTTGC],0.485
4,AAACTTTG (double strand) [8-mer AAACTTTG],0.481
5,AAAGTTTG (double strand) [8-mer AAAGTTTG],0.494
6,AACTTTTG (double strand) [8-mer AACTTTTG],0.48
7,AAGTTTCG (double strand) [8-mer AAGTTTCG],0.483
8,AAGTTTGA (double strand) [8-mer AAGTTTGA],0.48
9,AAGTTTGC (double strand) [8-mer AAGTTTGC],0.483
10,AAGTTTGG (double strand) [8-mer AAGTTTGG],0.485
11,AAGTTTGT (double strand) [8-mer AAGTTTGT],0.487
12,AAGTTTTC (double strand) [8-mer AAGTTTTC],0.48
13,CAAACTTC (double strand) [8-mer CAAACTTC],0.48
14,CAAACTTG (double strand) [8-mer CAAACTTG],0.487
15,GAAACTTC (double strand) [8-mer GAAACTTC],0.481

# Target: T2, C27D6.4 (C27D6.4) (Caenorhabditis elegans) (UniProt Q4JFH9)
# T2 sequence: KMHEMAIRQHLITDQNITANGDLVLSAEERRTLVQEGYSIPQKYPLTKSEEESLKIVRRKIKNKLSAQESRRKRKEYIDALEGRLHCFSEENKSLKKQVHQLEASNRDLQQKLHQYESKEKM
row,Sequence,binding signal (PBM E-score (-0.5 to 0.5))
1,ACACGTGG (double strand) [8-mer ACACGTGG],0.498
2,ACACGTGT (double strand) [8-mer ACACGTGT],0.497
3,ACGTGGAT (double strand) [8-mer ACGTGGAT],0.492
4,ACGTGGCG (double strand) [8-mer ACGTGGCG],0.498
5,ACGTGTCA (double strand) [8-mer ACGTGTCA],0.495
6,CACGTGGA (double strand) [8-mer CACGTGGA],0.495
7,CACGTGTA (double strand) [8-mer CACGTGTA],0.494
8,CACGTGTC (double strand) [8-mer CACGTGTC],0.496
9,GACGTGGC (double strand) [8-mer GACGTGGC],0.494

# Tested on: T3, C34D1.1 (C34D1.1) (Caenorhabditis elegans)
# T3 sequence: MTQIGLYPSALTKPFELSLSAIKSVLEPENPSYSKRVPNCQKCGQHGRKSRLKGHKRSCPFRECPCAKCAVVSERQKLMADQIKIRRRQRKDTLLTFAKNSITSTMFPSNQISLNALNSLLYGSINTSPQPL
row,Sequence,binding signal (PBM E-score (-0.5 to 0.5))
1,AAACATTT (double strand) [8-mer AAACATTT],0.473
2,AGTGTTTC (double strand) [8-mer AGTGTTTC],0.47
3,ATAGTTTC (double strand) [8-mer ATAGTTTC],0.47
4,ATGAAACA (double strand) [8-mer ATGAAACA],0.486
5,ATTGTTTC (double strand) [8-mer ATTGTTTC],0.487
6,CATGTTTC (double strand) [8-mer CATGTTTC],0.469
7,GAAACATA (double strand) [8-mer GAAACATA],0.488
8,GTGAAACA (double strand) [8-mer GTGAAACA],0.484

# Target: dmd-4 (C27C12.6) (Caenorhabditis elegans) (UniProt Q18248)
# Sequence (Q18248 1-114): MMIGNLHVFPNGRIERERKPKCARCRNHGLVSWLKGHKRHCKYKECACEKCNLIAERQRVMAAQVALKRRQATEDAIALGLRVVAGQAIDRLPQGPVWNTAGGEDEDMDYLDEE
row,Sequence,binding signal (PBM E-score (-0.5 to 0.5))
1,AAAGTATC (double strand) [8-mer AAAGTATC],0.492
2,AAGATACA (double strand) [8-mer AAGATACA],0.477
3,AGATACAT (double strand) [8-mer AGATACAT],0.492
4,ATGATACA (double strand) [8-mer ATGATACA],0.485
5,CATGTATC (double strand) [8-mer CATGTATC],0.483
6,GATACATA (double strand) [8-mer GATACATA],0.482
7,TAGATACA (double strand) [8-mer TAGATACA],0.491
8,TGATACAA (double strand) [8-mer TGATACAA],0.489

# Target: T4, Y53H1A.2 (Y53H1A.2) (Caenorhabditis elegans) (UniProt B1V8K4)
# T4 sequence: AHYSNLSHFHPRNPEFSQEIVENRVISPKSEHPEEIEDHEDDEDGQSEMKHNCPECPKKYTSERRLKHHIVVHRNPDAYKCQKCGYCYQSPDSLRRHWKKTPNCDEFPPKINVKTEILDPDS
row,Sequence,binding signal (PBM E-score (-0.5 to 0.5))
1,CGCCCACC (double strand) [8-mer CGCCCACC],0.484

# Target: T5, Y48G1C.6 (Y48G1C.6) (Caenorhabditis elegans) (UniProt Q9N3P2)
# T5 sequence: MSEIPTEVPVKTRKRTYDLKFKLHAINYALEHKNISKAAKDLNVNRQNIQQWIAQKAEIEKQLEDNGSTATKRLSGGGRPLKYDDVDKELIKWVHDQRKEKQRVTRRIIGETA
row,Sequence,binding signal (PBM E-score (-0.5 to 0.5))
1,AACTTGCA (double strand) [8-mer AACTTGCA],0.494
2,ACTGCAAG (double strand) [8-mer ACTGCAAG],0.493
3,ACTTGCAC (double strand) [8-mer ACTTGCAC],0.495
4,ACTTGCAG (double strand) [8-mer ACTTGCAG],0.494
5,ACTTGCAT (double strand) [8-mer ACTTGCAT],0.493
6,AGTGCAAG (double strand) [8-mer AGTGCAAG],0.493
7,ATCTTGCA (double strand) [8-mer ATCTTGCA],0.495
8,ATGCAAGA (double strand) [8-mer ATGCAAGA],0.495
9,CATGCAAG (double strand) [8-mer CATGCAAG],0.496
10,CCTGCAAG (double strand) [8-mer CCTGCAAG],0.493
11,CTGCAAGA (double strand) [8-mer CTGCAAGA],0.494
12,CTTGCACC (double strand) [8-mer CTTGCACC],0.494
13,GCATGCAA (double strand) [8-mer GCATGCAA],0.496
14,GTCTTGCA (double strand) [8-mer GTCTTGCA],0.494
15,GTGCAAGA (double strand) [8-mer GTGCAAGA],0.494

# Tested on: T6, syd-9 (ZK867.1) (Caenorhabditis elegans)
# T6 sequence: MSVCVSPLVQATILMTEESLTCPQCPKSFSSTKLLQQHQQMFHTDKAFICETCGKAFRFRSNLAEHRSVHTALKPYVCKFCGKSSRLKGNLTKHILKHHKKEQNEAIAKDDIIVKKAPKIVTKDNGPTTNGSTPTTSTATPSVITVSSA
row,Sequence,binding signal (PBM E-score (-0.5 to 0.5))
1,AACTGTAC (double strand) [8-mer AACTGTAC],0.492
2,ACTGTAAT (double strand) [8-mer ACTGTAAT],0.489
3,ACTGTACA (double strand) [8-mer ACTGTACA],0.494
4,ACTGTACC (double strand) [8-mer ACTGTACC],0.489
5,ACTGTACG (double strand) [8-mer ACTGTACG],0.491
6,GAACTGTA (double strand) [8-mer GAACTGTA],0.492
7,GACTGTAC (double strand) [8-mer GACTGTAC],0.49

# Target: T7, ZK337.2 (ZK337.2) (Caenorhabditis elegans) (UniProt O46016)
# T7 sequence: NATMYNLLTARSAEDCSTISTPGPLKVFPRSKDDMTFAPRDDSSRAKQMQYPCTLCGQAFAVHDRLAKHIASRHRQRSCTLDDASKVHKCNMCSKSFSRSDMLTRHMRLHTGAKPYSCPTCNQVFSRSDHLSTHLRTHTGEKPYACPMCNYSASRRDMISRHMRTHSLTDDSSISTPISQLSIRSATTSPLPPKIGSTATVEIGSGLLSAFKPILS
row,Sequence,binding signal (PBM E-score (-0.5 to 0.5))
1,CACCCACG (double strand) [8-mer CACCCACG],0.484
2,CACCCCCA (double strand) [8-mer CACCCCCA],0.482
3,CCACCCAC (double strand) [8-mer CCACCCAC],0.491
4,CCACCCCC (double strand) [8-mer CCACCCCC],0.485
5,CCGCCCCC (double strand) [8-mer CCGCCCCC],0.495
6,CGCCCACA (double strand) [8-mer CGCCCACA],0.484
7,GCCCCCGC (double strand) [8-mer GCCCCCGC],0.489
